Source: the DeepSol protein solubility set

assay: soluble on expression in E. coli; label from the status in PepcDB or PDB records

| Sequence | soluble on expression in E. coli |
| --- | --- |
| MALDITDESEIYNLDSLVSYSQGGCKAEHDWRIGTEHEKFPFYRGDFRPVPYEGSRGIRALLEGMQKALGWEPILDEGNIIGLVGSVGQGAISLEPGGQFELSGALLKTIGDTYCEVIEHLALLKKISEPLGIGFLGIGASPKWTLTETPRMPKSRYRIMANYMPKVGHSGLDMMYRTSTVQVNLDFSSETDMRRKMQVSMKLQSIATALFASSPFTEGRPNGFLSWRSEIWCDTDNQRTGVLPFIFSERFGFADYVEWALDVPMYFVVRDGRYYDCTHITFRQFMNGALRGQVANATPNMGDWINHLSTLFPEVRLKRFLEMRGADCGSLKRICALSAFWVGILYDSEALNEAEALTKDWCFEEVLDMRKRVPKEGLKTPFRQTIILEIARQAVAISHKGLKNRRQYASNGLDETSFLAPLEEVIAMGQTDADKFLSLYHSIWDKSVEPVFLECVY | not soluble |
| MALDKLLENEAQSEIERIRAEARGRAEKIVADARERAQTLLDSRQRLLENQRQAGLVRARSAADLELNAARLTASESGVTQVYQMVEDYLGNVTSAPEYGNILSRLIQEGLQAVPDAEAIEVNPAEMNVARHLVSGVEVRENPSIKGGVRVVARGGKSGVTNTLSGRLERVKADMAPQISRLLAE | soluble |
| MALIGRQTTIQMIDLEPELPTQKDYQSDILRELTQIRNENLEYNRLEVYVLELEQIMRIRMIVDLLDLGGRLNSETLLQMCYRLVNQETDLENLRNFRDSQFAQEEQRRDRLREIGQRIFNRFEQQQEEAAGNREGSEAGERPSKENIEFRIWRFLSVLQHQDGLERLDELEREIAVRREMNAADQFQEGQDFFARINPDIVAEGIPHHNNRDNIPIERQYRTEFIQLANDLQSPPDDVRLDVFRRLIDLGVQFQESRLEQDRQRIQEEPQRQREGEIMDQLNDSVKGDMRRLNPMAPGNASGNIQQEGAGIETDVDVDDELEDEYSGSDSSQDVEEVPEESSERYVADTGSATNQPSSSTSEPNAGNEEVEDPSQRTRKRGNGSELSDAKRTN | soluble |
| MALKVIKISRVSPATASVDPLIVPLSFFDLQWLKLNPTEQVFFYKLTESSSSRDVFYSSILPKLERSLSLILTHFRLFTGHLKWDSQDPKPHLVVLSGDTLSLTVAETDADFSRISGRGLRPELELRPLIPELPIYSDSGAVVSLQVTLFPKQGFCIGTTAHHVVLDGKTAEKFNKAWAHTCKHGTIPKILPTVLDRSVVNVPAGLEQKMLELLPYLTEDDKENGRTLKLPPVKEINAKDNVLRITIEISPENIEKLKERAKKESTRAELHLSTFVVTFAHVWTCMVKARSGDPNRPVRFMYAADFRNRLEPPVPVTYFGTCVLAMDFYKYKAKEFMGEDGFVNTVEILSDSVKRLASQGVESTWKVYEEGTKTMKWGTQLLVVNGSNQIGMYETDFGWGRPIHTETMSIYKNDEFSMSKRRDGIGGVEIGISLKKLEMDTFLSLFYKWIGN | soluble |
| MALLCYNRGCGQRFDPETNSDDACTYHPGVPVFHDALKGWSCCKRRTTDFSDFLSIVGCTKGRHNSEKPPEPVKPEVKTTEKKELCELKPKFQEHIIQAPKPVEAIKRPSPDEPMTNLELKISASLKQALDKLKLSSGNEENKKEEDNDEIKIGTSCKNGGCSKTYQGLESLEEVCVYHSGVPIFHEGMKYWSCCRRKTSDFNTFLAQEGCTKGKHMWTKKDAGKKVVPCRHDLHQTGGEVTISVYAKNSLPELSRVEANSTLLNVIIVFEGEKEFDQNVKLWGVIDVKRSYVTMTATKIEITMRKAEPMQWASLELPAAKKQEKQKDDTTD | soluble |
| MALVQALVPREREPKLSILQMDRGDPQHSSHWCPEREKVKLLTLKPRETSKNILINFYRAFNLDKDVFIHQANHPLTVPSSVVMGDNGHTLAEDDKRPCFRVLPCYLERVSSGISISWISAPLPVGAMKHQLLCDLMDLITLSFWLAGQCMSLKATNMQHCKCSIATSDWAIELDRTDYKTLPSEYSILALLQVFAGKNCMDRVLLHVDVNYLKSLP | soluble |
| MAMHPRAGQKARQEDLHNIPALVANYYLLQPEAGNTAHKVEFGTSGHRGTADKTTFNEHHILAIAQAVADVRHEHGVTGPIFIGKDTHALSEPAFSSVLEVLIANGIEVIVQENNGYTPTPGISHAILTYNLKHADKADGIVITPSHNPPQDGGIKYNPPHGGPAEGELTQAIEDRANAYISQQLAGVKRMPIALAKQSELLKQVDLVKPYVDDLVNVVDMAAIQKAKLKIGVDPLGGSGIDYWRQIGNAYQLDLTLVSEAIDPSFQFMSLDKDGVIRMDCSSPYAMAGLLALKDEYDLAFGNDPDYDRHGIVTPKGLMNPNHFLAVCIDYLYRHRQGWAGHVAVGKTLVSSAMIDKVVADLGRELCEVPVGFKWFVDGLYSGRFGFGGEESAGASFLRQDGTPWSTDKDGIILCLLAAEITAVTGKNPQQYYDELAAKHGDFYYSRIQAVANGPQKNVLKKLSPEMVSAQTLAGDAITARLTHAPGNGAAIGGLKVTTDYGWFAARPSGTEDIYKIYCESFKGAEHLKQIESEAQQIVNQVFKDAGL | not soluble |
| MAMNYLEAFPKELREYYKNLFGKEEANKIMKKLREPVEHYYIRVNTLKISREKLIGELKKEGLKPLRSPYLPEGLYFVREGPNFSDDFEPKLPVVVANKYAAESVYQGAMLYAPGVLKADKNIKEGDEVQIRDPKGLLVGIGIARMDYKEMTEATRGLAVEVTLPKFKLPSLSELKAFEKGYFYPQGLPSMVTARVLEPKEDDVIIDMAAAPGGKTTHIAQLLENKGEIIAIDKSKNRLRKMEENIKRLGVKNVKLVQMDARKLPDLGIKADKILLDAPCTALGVRPKLWEERTLKHIEATARYQRAFIWAAIKSLRRGGVLVYSTCTLSYEENEGNVKFMIRKGMKLEEQSIFIGSPGIGMNKVQRFYPHKHLTQGFFIAKLRKVKDI | soluble |
| MANEMKVFLLTKQGQEVMERQRKKQVLLSDPKAVYQDHFVSVRPDCLVVKKYFIPSMLPFEFHWDKIETMTYLPQNNENKLLVPNRGQDQEGRWWATDVLRPHERELHLYNVRIDVADTEPSKSGFTVIHIDQFLKSCRHLLPYSCKLSGCVWSE | not soluble |
| MANEQVLTAEQVLEKASQYLVDEDIELVARAYEYARDAHSEQYRKSGEPYIIHPIQVAGVLVDLHMDPATVSAGFLHDVVEDTEITLEDIEREFNKEIAMLVDGVTKLGKIKYKSHEQQQAENHRKMFIAMAQDIRVILIKLADRLHNMRTLKHLPQEKQRRIANETLEIFAPLAHRLGISTIKWELEDTSLRYLNPQQYYRIVNLMKRKRAEREEYLDEVMTGIREKLDEVAIQPEISGRPKHIYSIYRKMALQNKQFNEIYDLLAVRVVVNSIKDCYAVLGIIHTCWKPMPGRFKDYIAMPKANLYQSLHTTVIGPKGDPLEVQIRTKEMHEIAEFGIAAHWAYKEGKTAETTGTLEKKLTWFRQILEWQNEASNAEEFMESLKIDLFSDMVFVFTPKGDVMELPLGSVPIDFAYRVYSEIGNKTIGAKVNGKMVTLDYKLKTGDIIEILTSKHSYGPSQDWVKLAQTSHAKNKIRQFFKKQRRDENIEKGRELVEKEVRSLEYEMKEVLAPDNLKRVAEKFNFANEEDMFAAVGYNGITASQIVTRLTDKFRKQREEEEIVEVKEVRKPMKIRKWDSGVKVSGADNLLIRLSKCCNPVPGDDIVGYITKGRGVSIHRRDCVNVHTEEAIERLLEVEWEGSPEKEIEYNVDIEISGYDRRGLLNEVLQAVTETKTYISAVSGRSDRNKMATINMSISIRNLQHLKKVVERIKRVPEIYAVRRMMH | not soluble |
| MANKNYQMSTGVTAVVQKVVEACQDESKRLDLIEIARSYPPNQLRNMQRTFQAITGTFLDAFLKKHLSKDFESLVLMLYKPRAQLLCELIRGATKGAGTDEKCLVDVLLTIETHEVREIRQLYYQLYNDSLGDVVRKDCGDKYMWAKLINAVATGDRIPRDTHELEEDLVLVRKAIETKGVKKDEVSTWIRIFATYTRADFRQLHKMYSAKYNGDSLRAGVEDEFQGLDEYAFKLAHDFLYDPCCAAAFSMNVAFAGSGSDSNRLNRITAMHFRECKGCKYYYKKVYGQAFDERCATELKGVYGDAIKLLWEPVTVPLLSMDDYQGSEQHRPMTLEL | soluble |
| MANLPSSSGMFSRLLANVFNTTVASRCSASGRWWPQPDRRFTTKSDEKSSLEPKNTNETDVIITQQGVKLSKSNAAPVYYKPKSTGPGYELVEHKKGEMIANYTLFEAAINKSKVPWVNYDGLTSEERTIHMAHTRAINDRKLTYIDPKTGYSVFTISHHLQKGKCCGNGCRHCAYEMINASDEIRSQKVWNGAFYV | not soluble |
| MANLTEKFLRIFARRGKSIILAYDHGIEHGPADFMDNPDSADPEYILRLARDAGFDGVVFQRGIAEKYYDGSVPLILKLNGKTTLYNGEPVSVANCSVEEAVSLGASAVGYTIYPGSGFEWKMFEELARIKRDAVKFDLPLVVESFPRGGKVVNETAPEIVAYAARIALELGADAMKIKYTGDPKTFSWAVKVAGKVPVLMSGGPKTKTEEDFLKQVEGVLEAGALGIAVGRNVWQRRDALKFARALAELVYGGKKLAEPLNV | soluble |
| MANLVYSPKDILQKEFKTKMMNGYDPIEVDEFLDNVIKDYEAYNKELLSLQEENSRLMAKLDQLSKAQPTPRVAQEVPKSAAVTNFDILKRLSNLEREVFGKKLDETPSTPVTPSAPSMPAEPANHDVDNAQTRQF | not soluble |
| MANPELLEEQREETRLIIEELLEDGSDPDALYTIEHHLSADDFETLEKAAVEAFKLGYEVTEPEELEVEEGDTVICCDILSECALNAELIDAQVEQLMNLAEKYDVEYDGWGTYFEDPNGEEGDDDDYVDEDDDGVRH | not soluble |
| MANSAGSMADNSKTRVVVGMSGGVDSSVTALLLKEQGYDVIGIFMKNWDDTDENGVCTATEDYKDVAKVADQIGIPYYSVNFEKEYWDRVFEYFLAEYRLGRTPNPDVMCNKEIKFKAFLDYAMQLGADYVATGHYAQVETDENGVVHMLRGIDNNKDQTYFLSQLSQAQLAKTMFPLGGMEKSEVRAIAERAGLATAKKKDSTGVCFIGEKNFKEFLSNYLPAKKGNMVTEDGEIKGQHDGLMYYTIGQRQGLGIGGGGKTQEPWFVIGKDLTTNTLYVGQGFHHEKLYATHLEASEVHFTVDTPMPKEFDCTAKFRYRQADIPVHVSLSEDGTKATVTFKEPARAVTPGQAVVFYDGMECLGGGLIDRAYQDEKELQYVLEHHHHHH | not soluble |
| MAPAPAAEFWEARYRDTGRVWSGRPNELLVQEAGGLAPGTALDLGCGEGADAVWLASRGWRVTGVDISATALERAAGHADGAGVGDRVLWERHELGPSFPEGSFDLVSAHYLQSPVALDQQAVLRAAARAVAPGGTLLVVMHAGWPSWQTEPPFDAAFPTLDGVLAELALPEGEWSVETRRTARRPLEHHHHHH | not soluble |
| MAPLFAVTLYEFKAERDDELDVSPGENLSICAHYDYEWFIAKPINRLGGPGLVPVSYVRIIDLMDPAKYASVDTYDREQVMKIIDEFKIPTVEQWKDQTRRYKESSIQIGNGHGQSQGLE | soluble |
| MAPRGRYGPPSRRSENRVVVSGLPPSGSWQDLKDHMREAGDVCYADVYRDGTGVVEFVRKEDMTYAVRKLDNTKFRSHEGETAYIRVKVDGPRSPSYGRSRSRSRSRSRSLEH | soluble |
| MAPSMIPFTIKLKTCLKMCIQRLRYAQEKQQAIAKQSRRQVAQLLLTNKEQKAHYRVETLIHDDIHIELLEILELYCELLLARVQVINDISTEEQLVKEHMDDGINEAIRSLIYAILFVDEVKELSQLKDLMAWKINVEFVNGVIADHIDVPEKIIKKCSPSVPKEELVDLYLKEIAKTYDVPYSKLENSLSS | soluble |
